Substitutions are numbered along the chain they refer to.

This assay concerns the target T1, FIXa-SM (FIXa+EGR-CMK) (human, UniProt P00740 47-191; P00740 227-461, EGR-CMK (L-Glu-Gly-Arg chloromethyl ketone) covalently bound to the active site).
T1 construct: BLI antigen bought from Haematologic Technologies (HCIXA-EGR); also called FIXa with substrate mimic
The assay is described as follows: BLI; class meaning: paragraph 914. In general terms: Biolayer interferometry detects binding as a change in optical thickness at a sensor tip.

B1: BIIB-9-480 (antibody, V domains shown)
VH: QVQLQESGPGLVKPSETLSLTCAVSGYSISSGYYWGWIRQPPGKGLEWIGSSYHSGSTYYNPSLKSRVTISVDTSKNQFSLKLSSVTAADTAVYYCARDQQDYGAFDIWGQGTMVTVSS
VL: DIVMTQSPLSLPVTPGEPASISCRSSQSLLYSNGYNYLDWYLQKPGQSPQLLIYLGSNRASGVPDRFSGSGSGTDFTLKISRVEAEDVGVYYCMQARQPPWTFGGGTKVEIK
notes: IgG
In the case of B1, the binding result was “binds”.

B2: BIIB-9-425 (antibody, V domains shown)
VH: QVQLVQSGAEVKKPGASVKVSCKASGYTFTSYYMHWVRQAPGQGLEWMGIINPSGGSTSYAQKFQGRVTMTRDTSTSTVYMELSSLRSEDTAVYYCAREPTWDVAYDYWGQGTLVTVS
VL: EIVLTQSPGTLSLSPGERATLSCRASQSVSSDYLAWYQQKPGQAPRLLIYGASSRATGIPDRFSGSGSGTDFTLTISRLEPEDFAVYYCQQYDSHPYTFGGGTKVEIK
notes: IgG
With B2, the binding result was “binds”.

B3: BIIB-9-440 (antibody, V domains shown)
VH: QLQLQESGPGLVKPSETLSLTCTVSGGSISSSDYYWGWIRQPPGKGLEWIGSIYYSGSTYYNPSLKSRVTISVDTSKNQFSLKLSSVTAADTAVYYCARSPRHKVRGPNWFDPWGQGTLVTVSS
VL: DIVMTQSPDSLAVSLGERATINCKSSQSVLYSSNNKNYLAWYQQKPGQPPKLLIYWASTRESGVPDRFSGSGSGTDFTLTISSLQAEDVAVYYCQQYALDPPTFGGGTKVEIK
notes: IgG
As to B3, the binding result is listed as “binds”.

B4: BIIB-9-475 (antibody, V domains shown)
VH: QVQLQESGPGLVKPSETLSLTCTVSGGSISSYYWSWIRQPPGKGLEWIGSIYYSGSTNYNPSLKSRVTISVDTSKNQFSLKLSSVTAADTAVYYCARDVGGYDYGVGAFDIWGQGTMVTVSS
VL: DIQMTQSPSSLSASVGDRVTITCQASQDITNYLNWYQQKPGKAPKLLIYDASNLETGVPSRFSGSGSGTDFTFTISSLQPEDIATYYCQQSSNFPLTFGGGTKVEIK
notes: IgG
As to B4, the binding result is reported as “binds”.

B5: BIIB-9-414 (antibody, V domains shown)
VH: QVQLVQSGAEVKKPGASVKVSCKASGYTFTSYYMHWVRQAPGQGLEWMGIINPSGGSTSYAQKFQGRVTMTRDTSTSTVYMELSSLRSEDTAVYYCARDPYSYGMYYFDYWGQGTLVTVSS
VL: DIQMTQSPSSVSASVGDRVTITCRASQGISSWLAWYQQKPGKAPKLLIYAASSLQSGVPSRFSGSGSGTDFTLTISSLQPEDFATYYCQQGDVFPFTFGGGTKVEIK
notes: IgG
Consider B5, for which the binding result is given as “binds”.

B6: BIIB-9-605 (antibody, V domains shown)
VH: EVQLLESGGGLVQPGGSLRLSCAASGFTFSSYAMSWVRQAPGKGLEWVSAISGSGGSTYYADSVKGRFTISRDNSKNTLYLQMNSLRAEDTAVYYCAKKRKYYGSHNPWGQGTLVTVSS
VL: B5 VL with G91A
notes: IgG
B6: the binding result is “binds”.

B7: BIIB-9-415 (antibody, V domains shown)
VH: QVQLVQSGAEVKKPGASVKVSCKASGYTFTSYYMHWVRQAPGQGLEWMGIINPSGGSTSYAQKFQGRVTMTRDTSTSTVYMELSSLRSEDTAVYYCARDGLSSGYYWDNWGQGTLVTVSS
VL: B5 VL with S30D, V93A
notes: IgG
Regarding B7, the binding result is listed as “binds”.

B8: BIIB-9-627 (antibody, V domains shown)
VH: QVQLVQSGAEVKKPGASVKVSCKASGYTFTSYYMHWVRQAPGQGLEWMGIINPSGGSTSYAQKFQGRVTMTRDTSTSTVYMELSSLRSEDTAVYYCARADYDYWSGYGGLGMDVWGQGTTVTVSS
VL: not shown
notes: IgG
On to B8, for which the binding result is recorded as “binds”.

B9: BIIB-9-479 (antibody, V domains shown)
VH: QVQLQESGPGLVKPSETLSLTCTVSGGSISSYYWSWIRQPPGKGLEWIGSIYYSGSTNYNPSLKSRVTISVDTSKNQFSLKLSSVTAADTAVYYCAREHYGDYPLFDIWGQGTMVTVSS
VL: DIQMTQSPSTLSASVGDRVTITCRASQSISSWLAWYQQKPGKAPKLLIYKASSLESGVPSRFSGSGSGTEFTLTISSLQPDDFATYYCQQYRILSPTFGGGTKVEIK
notes: IgG
For the molecule B9, the binding result is “binds”.

B10: BIIB-9-465 (antibody, V domains shown)
VH: QVQLVQSGAEVKKPGASVKVSCKASGYTFTSYYMVWVRQAPGQGLEWMGIINPSGGSTSYAQKFQGRVTMTRDTSTSTVYMELSSLRSEDTAVYYCARSPTDGYYFDLWGRGTLVTVSS
VL: B9 VL with S30N, Y49S, K50D, R92E, L94F, S95P, P96F
notes: IgG
Regarding B10, the binding result is “binds”.

B11: BIIB-9-558 (antibody, V domains shown)
VH: EVQLVESGGGLVKPGGSLRLSCAASGFTFSSYSMNWVRQAPGKGLEWVSSISSSSSYIYYADSVKGRFTISRDNAKNSLYLQMNSLRAEDTAVYYCARSYGYGYHDFDLWGRGTLVTVSS
VL: B9 VL with S30G, Y91A, R92G, I93S, L94Y, P96F
notes: IgG
For the molecule B11, the binding result is listed as “binds”.

B12: BIIB-9-566 (antibody, V domains shown)
VH: QVQLVQSGAEVKKPGASVKVSCKASGYTFTSYYMVWVRQAPGQGLEWMGIINPSGGSTSYAQKFQGRVTMTRDTSTSTVYMELSSLRSEDTAVYYCARVPTYRYSYLAFDIWGQGTMVTVSS
VL: EIVMTQSPATLSVSPGERATLSCRASQSVSSSLAWYQQKPGQAPRLLIYGASTRATGIPARFSGSGSGTEFTLTISSLQSEDFAVYYCQQHDNWPPTFGGGTKVEIK
notes: IgG
Regarding B12, the binding result was “binds”.

B13: BIIB-9-460 (antibody, V domains shown)
VH: QVQLVQSGAEVKKPGASVKVSCKASGYTFTSYYMHWVRQAPGQGLEWMGIINPSGGSTSYAQKFQGRVTMTRDTSTSTVYMELSSLRSEDTAVYYCARDISTDGESSLYYYMDVWGKGTTVTVSS
VL: B12 VL with S32N, W94F, P96F
notes: IgG
In the case of B13, the binding result was “binds”.

B14: BIIB-9-452 (antibody, V domains shown)
VH: B10 VH with V35H, S99D, P100G, T101R, D102L, G103S, Y105T, F106W, L108R, R111Q
VL: B12 VL with S32N, H91A, D92N, W94F, P96F
notes: IgG
Regarding B14, the binding result was “binds”.

B15: BIIB-9-461 (antibody, V domains shown)
VH: QVQLVQSGAEVKKPGASVKVSCKASGYTFTSYYMHWVRQAPGQGLEWMGIINPSGGSTSYAQKFQGRVTMTRDTSTSTVYMELSSLRSEDTAVYYCARGPTDSSGYLDMDVWGKGTTVTVSS
VL: B12 VL with D92H, N93H
notes: IgG
As for B15, the binding result is given as “binds”.

B16: BIIB-9-477 (antibody, V domains shown)
VH: EVQLLESGGGLVQPGGSLRLSCAASGFTFSNYAMSWVRQAPGKGLEWVSAISGSGGSTYYADSVKGRFTISRDNSKNTLYLQMNSLRAEDTAVYYCARGGVYSSSWMRFWGQGTLVTVSS
VL: B12 VL with Y49F, H91D, D92V, P96I
notes: IgG
B16: the binding result is recorded as “binds”.

B17: BIIB-9-622 (antibody, V domains shown)
VH: B12 VH with V35H, V99D, P100G, T101A, Y102T, R103T, Y104V, A108S
VL: B12 VL with D92S, N93T
notes: IgG
Regarding B17, the binding result is given as “binds”.

B18: BIIB-9-621 (antibody, V domains shown)
VH: QLQLQESGPGLVKPSETLSLTCTVSGGSISSSSYYWGWIRQPPGKGLEWIGSIYYSGSTYYNPSLKSRVTISVDTSKNQFSLKLSSVTAADTAVYYCARDGSISGSRFDYWGQGTLVTVSS
VL: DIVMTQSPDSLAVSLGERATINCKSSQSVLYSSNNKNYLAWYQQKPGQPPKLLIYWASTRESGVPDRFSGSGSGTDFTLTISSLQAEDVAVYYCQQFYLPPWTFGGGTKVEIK
notes: IgG
Consider B18, for which the binding result is given as “binds”.

These data come from patent US20230192896A1 (BIOVERATIV THERAPEUTICS, published 2023).
